# According to article PMC3988174:
# B1: Oxygen-evolving enhancer protein 3-2 (natural protein)
# chain: MAQAVTSMAGLRGASQAVLEGSLQINGSNRLNISRVSVGSQRTGLVIRAQQNVSVPESSRRSVIGLVAAGLAGGSFVKAVFAEAIPIKVGGPPLPSGGLPGTDNSDQARDFSLALKDRFYIQPLSPTEAAARAKDSAKEIINVKSFIDKKAWPYVQNDLRLRASYLRYDLNTVISAKPKEEKQSLKDLTAKLFQTIDNLDYAARSKSSPDAEKYYSETVSSLNNVLAKLG
# B2: Lactoylglutathionelyase (natural protein)
# chain: MASEARESPANNPGLSTNRDEATKGYIMQQTMFRIKDPKASLDFYSRVLGMSLLKRLDFSEMKFSLYFLGYEDTTTAPTDPTERTVWTFGQPATIELTHNWGTESDPEFKGYHNGNSEPRGFGHIGVTVDDVHKACERFEELGVEFAKKPNDGKMKNIAFIKDPDGYWIEIFDLKTIGTTTVNAA
# B3: Tryptophan synthase, beta subunit 1 (natural protein)
# chain: MAASGTSATFRASVSSAPSSSSQLTHLKSPFKAVKYTPLPSSRSKSSSFSVSCTIAKDPPVLMAAGSDPALWQRPDSFGRFGKFGGKYVPETLMHALSELESAFYALATDDDFQRELAGILKDYVGRESPLYFAERLTEHYRRENGEGPLIYLKREDLNHTGAHKINNAVAQALLAKRLGKKRIIAETGAGQHGVATATVCARFGLECIIYMGAQDMERQALNVFRMRLLGAEVRGVHSGTATLKDATSEAIRDWVTNVETTHYILGSVAGPHPYPMMVRDFHAVIGKETRKQALEKWGGKPDVLVACVGGGSNAMGLFHEFVNDTEVRMIGVEAAGFGLDSGKHAATLTKGDVGVLHGAMSYLLQDDDGQIIEPHSISAGLDYPGVGPEHSFFKDMGRAEYYSITDEEALEAFKRVSRLEGIIPALETSHALAYLEKLCPTLSDGTRVVLNFSGRGDKDVQTVAKYLDV
# B4: 5′-Adenylylsulfate reductase 2 (natural protein)
# chain: MALAVTSSSTAISGSSFSRSGASSESKALQICSIRLSDRTHLSQRRYSMKPLNAESHSRSESWVTRASTLIAPEVEEKGGEVEDFEQLAKKLEDASPLEIMDKALERFGDQIAIAFSGAEDVALIEYARLTGKPFRVFSLDTGRLNPETYRLFDAVEKQYGIRIEYMFPDAVEVQALVRNKGLFSFYEDGHQECCRVRKVRPLRRALKGLKAWITGQRKDQSPGTRSEIPIVQVDPVFEGLDGGVGSLVKWNPLANVEGADVWNFLRTMDVPVNALHAQGYVSIGCEPCTRPVLPGQHEREGRWWWEDAKAKECGLHKGNIKEEDGAADSKPAAVQEIFESNNVVALSKGGVENLLKLENRKEAWLVVLYAPWCPFCQAMEASYIELAEKLAGKGVKVAKFRADGEQKEFAKQELQLGSFPTILLFPKRAPRAIKYPSEHRDVDSLMSFVNLLR
# B5: CCR-like protein (natural protein)
# chain: MQGALFIKPTILLPLPSSVSSPKLTFLLPHATKASRLSSLRSNNSSSSSSLTSDPNTVDYNSSILSVFPAEACEVISGYACSADIYPEVKLDTKPVSRPVASEPVDREYEEYNSPKTVFREEACDDLGGEFCEPDFQKDAN
# B6: Geranylgeranyl reductase (natural protein)
# chain: MLFSGSAIPLSSFCSLPEKPHTLPMKLSPAAIRSSSSSAPGSLNFDLRTYWTTLITEINQKLDEAIPVKHPAGIYEAMRYSVLAQGAKRAPPVMCVAACELFGGDRLAAFPTACALEMVHAASLIHDDLPCMDDDPVRRGKPSNHTVYGSGMAILAGDALFPLAFQHIVSHTPPDLVPRATILRLITEIARTVGSTGMAAGQYVDLEGGPFPLSFVQEKKFGAMGECSAVCGGLLGGATEDELQSLRRYGRAVGMLYQVVDDITEDKKKSYDGGAEKGMMEMAEELKEKAKKELQVFDNKYGGGDTLVPLYTFVDYAAHRHFLLPL
# B7: Putative 3-dehydroquinate synthase (natural protein)
# chain: MAANTISLSNVAASKNLNSFQSRAFIAPPTIFFPVASAKSKPGELSLSSTTLSRSRVRAGASQLMNEPLNDQRSISSPTVVEVDLGDRSYPIYIGAGLLDHSELLQRHVHGKRVLVVTNDRVAPLYLDKTIDALTRGNPNVTVESVILPDGEKYKDMDTLMKVFDKAIESRLDRRCTFVALGGGVIGDMCGYAAASYLRGVNFIQIPTTVMAQVDSSVGGKTGINHRLGKNLIGAFYQPQCVLVDTDTLNTLPDREMASGLAEVIKYGLIRDAEFFEWQEKNIEALLARDPAALAFAIKRSCENKADVVSQDEKESGLRATLNLGHTFGHAIETGFGYGEWLHGEAVAAGTVMAVDMSYRLGWIDESIVKRVNKILVRAKLPTTPPESMTVSMFKSIMAVDKKVADGLLRLILLKGPLGNCVFTGDYDREALDATLRAFSKS
# B8: Protein LURP-one-related 15 Protein (natural protein)
# chain: MEQPYVYAYPQGSGPSGAPTPQAGGVVVDPKYCAPYPIDMAIVRKMMSLTDGNFVITDVNGNLLFKVKEPVFGLHDKRVLLDGSGTPVVTLREKMVSMHDRWQVFRGGSTDQRDLLYTVKRSSMLQLKTKLDVFLGHNKDEKRCDFRVKGSWLERSCVVYAGESDAIVAQMHRKHTVQSVFLGKDNFSVTVYPNVDYAFIASLVVILDDVNREDRAA
# B9: Translationally controlled tumor protein (natural protein)
# chain: MLVYQDLLTGDELLSDSFPYKEIENGILWEVEGKWVTVGAVDVNIGANPSAEEGGEDEGVDDSTQKVVDIVDTFRLQEQPTYDKKGFIAYIKKYIKLLTPKLSEEDQAVFKKGIEGATKFLLPRLSDFQFFVGEGMHDDSTLVFAYYKEGSTNPTFLYFAHGLKEVKC
# B10: Small GTP-binding protein (natural protein)
# chain: MAMASAMDLSSPPTFFLSGTSTSSPSLRRLSSISVSGFRRHSNRKLQILCQATAGTEPQSGLSVSGSKLAARSGQDRLLKVPISNIRNFSIIAHIDHGKSTLADKLLQVTGTVQNRDMKEQFLDNMDLERERGITIKLQAARMRYVYEDTPFCLNLIDTPGHVDFSYEVSRSLAACEGALLVVDASQGVEAQTLANVYLALENNLEIIPVLNKIDLPGAEPEKVLREIEEVIGLDCSKAIFCSAKEGIGITEILDAIVQRIPAPLDTAGKPLRALIFDSYYDPYRGVIVYFRVIDGKVKKGDRIFFMASGKDYFADEVGVLSPNQIQVDELYAGEVGYIAASVRSVADARVGDTITHYSRKAESSLPGYEEATPMVFCGLFPVDADQFPDLRDALEKLQLNDAALKFEPETSSAMGFGFRCGFLGLLHMEIVQERLEREYNLNLITTAPSVVYRVNSVNGDTTLCSNPSRLPDPGQRKSVEEPYVKIELLTPKDYIGALMELAQERRGEFKEMKYIAENRASILYELPLAEMVGDFFDQLKSRTKGYASMEYSVIGYRESDLIKLDILINAEMVEPLSTIVHRDKAYSVGRALTQKLKELIPRQMFKVPIQACIGSKVIASEALSAIRKDVLAKCYGGDISRKKKLLKKQAAGKKRMKAIGRVDVPQEAFMAVLKLEREVL
# B11: Glutathione S-transferase PHI 2 (natural protein)
# chain: MAGIKVFGHPASIATRRVLIALHEKNLDFELVHVELKDGEHKKEPFLSRNPFGQVPAFEDGDLKLFESRAITQYIAHRYENQGTNLLQTDSKNISQYAIMAIGMQVEDHQFDPVASKLAFEQIFKSIYGLTTDEAVVAEEEAKLAKVLDVYEARLKEFKYLAGETFTLTDLHHIPAIQYLLGTPTKKLFTERPRVNEWVAEITKRPASEKVQ
# B12: Photosystem II subunit T (natural protein)
# chain: MASMTMTATFFPAVAKVPSATGGRRLSVVRASTSDNTPSLEVKEQSSTTMRRDLMFTAAAAAVCSLAKVAMAEEEEPKRGTEAAKKKYAQVCVTMPTAKICRY
# B13: MPBQ/MSBQ methyl transferase (natural protein)
# chain: MASLMLNGAITFPKGLGSPGSNLHARSIPRPTLLSVTRTSTPRLSVATRCSSSSVSSSRPSAQPRFIQHKKEAYWFYRFLSIVYDHVINPGHWTEDMRDDALEPADLSHPDMRVVDVGGGTGFTTLGIVKTVKAKNVTILDQSPHQLAKAKQKEPLKECKIVEGDAEDLPFPTDYADRYVSAGSIEYWPDPQRGIREAYRVLKIGGKACLIGPVYPTFWLSRFFSDVWMLFPKEEEYIEWFKNAGFKDVQLKRIGPKWYRGVRRHGLIMGCSVTGVKPASGDSPLQLGPKEEDVEKPVNNPFSFLGRFLLGTLAAAWFVLIPIYMWIKDQIVPKDQPI
# B14: GLNB1-like protein (natural protein)
# chain: MAASMTKPISITSLGFYSDRKNIAFSDCISICSGFRHSRPSCLDLVTKSPSNNSRVLPVVSAQISSDYIPDSKFYKVEAIVRPWRIQQVSSALLKIGIRGVTVSDVRGFGAQGGSTERHGGSEFSEDKFVAKVKMEIVVKKDQVESVINTIIEGARTGEIGDGKIFVLPVSDVIRVRTGERGEKAEKMTGDMLSPS
# B15: Sugar transporter EDR6-like 7 (natural protein)
# chain: MSKASDAVREPLVDKNMAGSKPDQPWMVYLSTFVAVCGSFAFGSCAGYSSPAQAAIRNDLSLTIAEFSLFGSLLTFGAMIGAITSGPIADLVGRKGAMRVSSAFCVVGWLAIIFAKGVVALDLGRLATGYGMGAFSYVVPIFIAEIAPKTFRGALTTLNQILICTGVSVSFIIGTLVTWRVLALIGIIPCAASFLGLFFIPESPRWLAKVGRDTEFEAALRKLRGKKADISEEAAEIQDYIETLERLPKAKMLDLFQRRYIRSVLIAFGLMVFQQFGGINGICFYTSSIFEQAGFPTRLGMIIYAVLQVVITALNAPIVDRAGRKPLLLVSATGLVIGCLIAAVSFYLKVHDMAHEAVPVLAVVGIMVYIGSFSAGMGAMPWVVMSEIFPINIKGVAGGMATLVNWFGAWAVSYTFNFLMSWSSYGTFLIYAAINALAIVFVIAIVPETKGKTLEQIQAIVNP
# B16: Fe superoxide dismutase 1 (natural protein)
# chain: MAASSAVTANYVLKPPPFALDALEPHMSKQTLEFHWGKHHRAYVDNLKKQVLGTELEGKPLEHIIHSTYNNGDLLPAFNNAAQAWNHEFFWESMKPGGGGKPSGELLALLERDFTSYEKFYEEFNAAAATQFGAGWAWLAYSNEKLKVVKTPNAVNPLVLGSFPLLTIDVWEHAYYLDFQNRRPDYIKTFMTNLVSWEAVSARLEAAKAASA
# B17: Chloroplast chaperonin 10 (natural protein)
# chain: MASTFVCSLPNPFFAFPVKATTPSTANHTLLGSRRGCLRIKAISTKWEPTKVVPQADRVLVRLEDLPIKSSGGVLLPKAAVKFERYLTGEIISVGSEVGQQVGPGKRVLFSDVSAYEVDLGTDARHCFCKESDLLALVE
# Biological target: atToc132 G-domain bait (Arabidopsis thaliana) (UniProt Q9SLF3)
# Assay: two-hybrid; pairwise split-ubiquitin yeast two-hybrid of isolated NubG-preys with Toc159G, Toc132G or Toc132AG bait in NMY51; growth on SD-LWHA (3-AT) and quantitative β-Gal assay, activity relative to a reference bait set to 100%
# Sequence of atToc132 G-domain bait (Arabidopsis thaliana) (Q9SLF3 456-794): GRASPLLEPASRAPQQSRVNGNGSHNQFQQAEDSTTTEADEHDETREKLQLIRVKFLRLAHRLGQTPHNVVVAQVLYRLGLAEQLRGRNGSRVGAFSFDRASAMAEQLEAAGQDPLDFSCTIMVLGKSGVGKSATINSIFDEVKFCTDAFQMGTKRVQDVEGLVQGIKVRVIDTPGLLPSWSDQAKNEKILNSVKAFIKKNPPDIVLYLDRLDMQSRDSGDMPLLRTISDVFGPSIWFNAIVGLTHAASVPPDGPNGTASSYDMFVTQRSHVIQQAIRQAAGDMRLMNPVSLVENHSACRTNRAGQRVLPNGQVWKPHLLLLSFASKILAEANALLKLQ
row,Binder,% increase in strength of interaction (β-Gal) with 132G against 159G [%]
1,B1,20
2,B2,91.5
3,B3,19.6
4,B4,44.7
5,B5,74.4
6,B6,88
7,B7,27.8
8,B8,29.9
9,B9,41
10,B10,41.1
11,B11,52
12,B12,28.9
13,B13,30.7
14,B14,39.8
15,B15,49.3
16,B16,99.5
17,B17,42.1
